Key:
[1] = target: T1, fusion protein of region 399-540 of human ADAM28s added to the C-terminal of MBP (human); experiment: Western blotting of MBP fusion proteins
T1 chain: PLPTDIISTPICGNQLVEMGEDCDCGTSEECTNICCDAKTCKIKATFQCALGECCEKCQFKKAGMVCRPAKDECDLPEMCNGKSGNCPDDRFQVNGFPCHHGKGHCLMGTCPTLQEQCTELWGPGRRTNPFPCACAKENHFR

[2] = target: T2, fusion protein of region 491-540 of human ADAM28s added to the C-terminal of MBP (human); experiment: Western blotting of MBP fusion proteins
T2 construct: also called MBP-ADAM28s 491-540
T2 chain: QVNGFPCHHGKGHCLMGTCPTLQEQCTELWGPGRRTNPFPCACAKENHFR

[3] = target: T3, peptide #25 of the human ADAM28s peptide array (FTLENFSKWRGS) (human); experiment: peptide array, HRP-labeled antibody
T3 construct: 12-mer partial peptide of human ADAM28s, immobilized on an array
T3 peptide: FTLENFSKWRGS
Method: (§1) Specifically, as shown below, a peptide array consisting of peptides having the residue number of 12 amino acid residues with an offset of 3 amino acid residues were prepared for a sequence covering from the protease domain to the C-terminal of human ADAM28s. HRP-labeled anti-human ADAM28s antibody was reacted with the peptide array.

[4] = target: T4, peptide #26 of the human ADAM28s peptide array (ENFSKWRGSVLS) (human); experiment: peptide array, HRP-labeled antibody
T4 construct: 12-mer partial peptide of human ADAM28s, immobilized on an array
T4 peptide: ENFSKWRGSVLS
Method: as §1

B1: anti-human ADAM28 human antibody 211-14 (antibody, V domains shown)
VH: QVQLQQSGPGLVKPSQTLSLTCAISGDSVSSNTAAWGWIRQSPGRGLEWLGVIYYRSKWYNDYAVSVKSRITINPDTSKNQFSLQLNSVTPEDTAVYYCARYKESIPEYGFDFWGQGTLVTVSS
VL: DIVMTQSPLSLPVTPGEPASISCRSSQSLLYSNGYIYLNWYLQKPGQSPQLLIYLGSNRASGVPDRFSGSGSGTDFTLKISRVEAEDVGVYYCFQYGGSPLTFGQGTKVEIKR
notes: Clone from the HuCAL GOLD phage library, first made as Fab, then converted to IgG (heavy chain constant region IgG1)
B1: binds [1]; binds [2].

B2: anti-human ADAM28 human antibody 211-12 (antibody, V domains shown)
VH: QVQLVQSGAEVKKPGESLKISCKGSGYSFTSYWIAWVRQMPGKGLEWMGIIYPSDSYTRYSPSFQGQVTISADKSISTAYLQWSSLKASDTAMYYCARWSWMGRGFDNWGQGTLVTVSS
VL: DIQMTQSPSSLSASVGDRVTITCRASQDISSYLNWYQQKPGKAPKLLIYGVSTLQSGVPSRFSGSGSGTDFTLTISSLQPEDFATYYCLQYDSLPSTFGQGTKVEIKR
notes: Clone from the HuCAL GOLD phage library, first made as Fab, then converted to IgG (heavy chain constant region IgG1) in HEK293T cells; It was HRP-labeled in the peptide array
B2: binds [3]; binds [4].
